Measurements reported in paper PMC5314169, “Structure of the Branched-chain Amino Acid and GTP-sensing Global Regulator, CodY, from Bacillus subtilis*” (The Journal of Biological Chemistry, 2016).

Key:
[1] = target: CodY(L3S), leucine 3 to serine mutant of CodY from Bacillus subtilis (Bacillus subtilis) (UniProt P39779); assay: crystal structure; CodY(L3S) at 18 mg/ml with 20 mM isoleucine; 15% PEG 5000, 5% tacsimate, 0.1 M HEPES pH 7.5; four molecules per asymmetric unit
[2] = target: the molecule itself; assay: crystal structure; unliganded CodY, three crystal forms (A, B, C) grown from 10-20 mg/ml protein; form B with 10 mM GTP and form C with 5 mM GTPgammaS present but not seen bound; tetramer in all forms
[3] = target: the molecule itself; assay: SEC-MALLS; 100 ul of 1 mg/ml (~35 uM) protein on Superdex S200 10/300 in 50 mM Tris-HCl pH 7.5, 150 mM NaCl, with or without 10 mM isoleucine (no effect on the trace); no tetramers seen
[4] = target: T1, CodY (wild type, C-terminal His5) (Bacillus subtilis, UniProt P39779 2-259); assay: EMSA; 10 mM Ile/Leu/Val; apparent Kd, CodY monomer; C2 predominant; EMSA: 20 mM Tris-Cl pH 8.0, 50 mM KCl, 2 mM MgCl2, 5% glycerol, 0.5 mM EDTA, 1 mM DTT, 0.05% Nonidet P, salmon sperm DNA (printed 40-25 ug/ml), room temperature 16 min, +/-10 mM ILV; conditions: protein: recombinant, tags: C-terminal His5, chain copies: 2, blunt
T1 sequence: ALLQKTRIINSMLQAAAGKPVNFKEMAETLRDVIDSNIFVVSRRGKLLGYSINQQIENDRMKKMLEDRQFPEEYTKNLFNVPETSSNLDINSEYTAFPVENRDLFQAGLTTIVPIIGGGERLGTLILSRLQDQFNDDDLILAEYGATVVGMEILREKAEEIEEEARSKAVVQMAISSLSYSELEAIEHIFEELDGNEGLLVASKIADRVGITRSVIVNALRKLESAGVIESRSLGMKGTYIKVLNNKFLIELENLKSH

[5] = target: T1, CodY (wild type, C-terminal His5); assay: EMSA; 10 mM Ile/Leu/Val; only C1 complex; EMSA: 20 mM Tris-Cl pH 8.0, 50 mM KCl, 2 mM MgCl2, 5% glycerol, 0.5 mM EDTA, 1 mM DTT, 0.05% Nonidet P, salmon sperm DNA (printed 40-25 ug/ml), room temperature 16 min, +/-10 mM ILV; conditions: protein: recombinant; tags: C-terminal His5; chain copies: 2; label: 32P 5' on one strand; blunt

CodY(L3S), leucine 3 to serine mutant of CodY from Bacillus subtilis (from UniProt P39779 1-259) (natural protein)
stoichiometry N [1]: 4

B1: CodY from Bacillus subtilis, full-length, wild type (natural protein)
chain: GPAMALLQKTRIINSMLQAAAGKPVNFKEMAETLRDVIDSNIFVVSRRGKLLGYSINQQIENDRMKKMLEDRQFPEEYTKNLFNVPETSSNLDINSEYTAFPVENRDLFQAGLTTIVPIIGGGERLGTLILSRLQDQFNDDDLILAEYGATVVGMEILREKAEEIEEEARSKAVVQMAISSLSYSELEAIEHIFEELDGNEGLLVASKIADRVGITRSVIVNALRKLESAGVIESRSLGMKGTYIKVLNNKFLIELENLKSH
notes: what is left of the tag after cleavage with human rhinovirus 3C protease, printed as Gly-Pro-Ala; CodY, Bacillus subtilis, 259 amino acid residues, calculated mass 29 kDa; construct pET-YSBLIC-BsCodY; also called unliganded CodY; wild-type CodY; source: E. coli BL21(DE3), purified (nickel chelation, 3C protease cleavage, second nickel column, heparin, Superdex 200); not shown: polyhistidine, …
stoichiometry N [2]: 4 | stoichiometry N [3]: 2

B2: BcaPp8(36) (dsDNA)
DNA 1: CAAAATAAAAAATTTGTCGAATTTTCTGAAAATTTT
DNA 2: AAAATTTTCAGAAAATTCGACAAATTTTTTATTTTG
Kd ([4]; label: 32P 5' on one strand in EMSA): 1.6 nM

B3: BcaPp8(19) (dsDNA)
DNA 1: CGAATTTTCTGAAAATTTT
DNA 2: AAAATTTTCAGAAAATTCG
binding result [5]: binds

B4: BcaPp8(31) (dsDNA)
DNA 1: TAAAAAATTTGTCGAATTTTCTGAAAATTTT
DNA 2: AAAATTTTCAGAAAATTCGACAAATTTTTTA
Kd ([4]; label: 32P 5' on one strand): 1.6 nM
